Laboratory results as given in paper PMC9723548, “Sulfate adenylyl transferase kinetics and mechanisms of metabolic inhibitors of microbial sulfate respiration” (ISME Communications, 2021).

T1: sulfate adenylyl transferase (Sat) / ATP sulfurylase (Oleidesulfovibrio alaskensis, UniProt Q30Z34)
T1 construct: gene Dde_2265
T1 sequence (Q30Z34 1-427): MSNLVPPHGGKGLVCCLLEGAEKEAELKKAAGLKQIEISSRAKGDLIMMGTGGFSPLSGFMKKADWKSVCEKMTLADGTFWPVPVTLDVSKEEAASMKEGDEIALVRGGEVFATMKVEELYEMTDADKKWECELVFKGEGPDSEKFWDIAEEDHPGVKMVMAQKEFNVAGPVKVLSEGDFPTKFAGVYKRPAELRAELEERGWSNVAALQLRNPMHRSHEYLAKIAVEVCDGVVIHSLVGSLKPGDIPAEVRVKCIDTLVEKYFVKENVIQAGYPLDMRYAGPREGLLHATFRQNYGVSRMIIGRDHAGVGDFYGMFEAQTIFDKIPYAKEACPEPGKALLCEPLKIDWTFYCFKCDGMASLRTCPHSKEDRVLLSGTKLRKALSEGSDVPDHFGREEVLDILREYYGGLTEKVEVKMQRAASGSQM

B1: sulfate adenylyl transferase (Sat) / ATP sulfurylase (Oleidesulfovibrio alaskensis G20) (protein)
chain: T1 sequence (Q30Z34 1-427)

Legend:
[1] = molecular target: T1, sulfate adenylyl transferase (Sat) / ATP sulfurylase; test: pyrophosphate accumulation, modified molybdenum blue assay
purified protein [2] = substrate: O=[Se](=O)(O)O; test: purified protein
purified protein [3] = substrate: [O]=[Cr](=[O])([OH])[OH]; test: purified protein; settings: alternative substrate in place of sulfate; co-substrate ATP

Row | Molecule | Ki [1] | Km (purified protein [2]) | kcat/Km (purified protein [2]) | Km (purified protein [3]) | kcat (purified protein [3]) | kcat/Km (purified protein [3])
1 | [O-][Cl+2]([O-])O [ClO3^−] | 0.316 ± 0.017 mM |  |  |  |  | 
2 | O=[N+]([O-])O [NO3^−] | 3.6 ± 0.27 mM |  |  |  |  | 
3 | B1 |  | 1.77 ± 0.55 mM | 160 M⁻¹ s⁻¹ | 0.793 ± 0.14 mM | 16 s⁻¹ | 20000 M⁻¹ s⁻¹
